# From IntAct's records for PubMed 22135460
# B1: Late transcription coactivator (Enterobacteria phage T4), P13338 (parent)
# chain: MTQFSLNDIRPVDETGLSEKELSIKKEKDEIAKLLDRQENGFIIEKMVEEFGMSYLEATTAFLEENSIPETQFAKFIPSGIIEKIQSEAIDENLLRPSVVRCEKTNTLDFLL
# Variants of: B1
# Settings: with rpob_ecoli rpoB
row,Variant,effect of a mutation on the interaction
1,MTQFSLNDIRPVDETGLSEKELSIKKEKDEIAKLLDRQENGFIIEKMVEEFGMSYLEATTAFLEENSIPKTQFAKFIPSGIIEKIQSEAIDENLLRPSVVRCEKTNTLDFLL,decreasing interaction strength
